Reference: publication PMC11969024 (2025)

B1: peptide HD2 (from tick evasin EVA4) / CCL4 (biotinylated, synthetic) (parent complex)
chain 1: EEDDYTAYAPLTCYFT
chain 2: APMGSDPPTACCFSYTARKLPRNFVVDYYETSSLCSQPAVVFQTKRSKQVCADPSESWVQEYVYDLELN

Variants of: B1

| Variant | enrichment |
| --- | --- |
| chain 1 EEDDYTAYAPLTCYFN | 0.632 log2 (difference from the parental peptide) |
| chain 1 EEDDYTAYAPLTCYFQ | 1.49 log2 (difference from the parental peptide) |
| chain 1 EEDDYTAYAPLTCYFY | -1.43 log2 (difference from the parental peptide) |
| chain 1 EEDDYTAYAPLTCYFI | -0.308 log2 (difference from the parental peptide) |
| chain 1 EEDDYTAYAPLTCYFG | 1.59 log2 (difference from the parental peptide) |
| chain 1 EEDDYTAYAPLTCYFK | 0.843 log2 (difference from the parental peptide) |
| chain 1 EEDDYTAYAPLTCYFS | 1.17 log2 (difference from the parental peptide) |
| chain 1 EEDDYTAYAPLTCYFV | -0.281 log2 (difference from the parental peptide) |
| chain 1 EVDDYTAYAPLTCYFT | -1.26 log2 (difference from the parental peptide) |
| chain 1 EPDDYTAYAPLTCYFT | -3.03 log2 (difference from the parental peptide) |
| chain 1 EQDDYTAYAPLTCYFT | -1.88 log2 (difference from the parental peptide) |
| chain 1 EWDDYTAYAPLTCYFT | -1.18 log2 (difference from the parental peptide) |
| chain 1 EMDDYTAYAPLTCYFT | -2.17 log2 (difference from the parental peptide) |
| chain 1 ENDDYTAYAPLTCYFT | -2.2 log2 (difference from the parental peptide) |
| chain 1 EHDDYTAYAPLTCYFT | -2.04 log2 (difference from the parental peptide) |
| chain 1 EEDDYTADAPLTCYFT | -2.3 log2 (difference from the parental peptide) |
| chain 1 EEDDYTAVAPLTCYFT | -2.68 log2 (difference from the parental peptide) |
| chain 1 EEDDYTAHAPLTCYFT | -0.426 log2 (difference from the parental peptide) |
| chain 1 EEFDYTAYAPLTCYFT | -2.01 log2 (difference from the parental peptide) |
| chain 1 EEQDYTAYAPLTCYFT | -3.56 log2 (difference from the parental peptide) |
| chain 1 EEMDYTAYAPLTCYFT | -2.83 log2 (difference from the parental peptide) |
| chain 1 EEGDYTAYAPLTCYFT | -2.44 log2 (difference from the parental peptide) |
| chain 1 EENDYTAYAPLTCYFT | -2.11 log2 (difference from the parental peptide) |

| Variant | enrichment |
| --- | --- |
| chain 1 EEVDYTAYAPLTCYFT | -3.36 log2 (difference from the parental peptide) |
| chain 1 EEEDYTAYAPLTCYFT | 1.01 log2 (difference from the parental peptide) |
| chain 1 EEWDYTAYAPLTCYFT | -2.32 log2 (difference from the parental peptide) |
| chain 1 EELDYTAYAPLTCYFT | -3.31 log2 (difference from the parental peptide) |
| chain 1 EEADYTAYAPLTCYFT | -2.51 log2 (difference from the parental peptide) |
| chain 1 EEDDYTAYAWLTCYFT | -7.42 log2 (difference from the parental peptide) |
| chain 1 EEDDYTAYAFLTCYFT | -7.39 log2 (difference from the parental peptide) |
| chain 1 EEDDYTAYAALTCYFT | -7.28 log2 (difference from the parental peptide) |
| chain 1 EEDDYTAYASLTCYFT | -7.76 log2 (difference from the parental peptide) |
| chain 1 EEDDYTAYAVLTCYFT | -9.95 log2 (difference from the parental peptide) |
| chain 1 EEDDYTAYACLTCYFT | -7.71 log2 (difference from the parental peptide) |
| chain 1 EEDDYTAYALLTCYFT | -9.07 log2 (difference from the parental peptide) |
| chain 1 EEDDYTAYMPLTCYFT | -3.9 log2 (difference from the parental peptide) |
| chain 1 EEDDYTAYVPLTCYFT | -8.22 log2 (difference from the parental peptide) |
| chain 1 EEDDYTAYAPATCYFT | 0.289 log2 (difference from the parental peptide) |
| chain 1 EEDDYTAYAPWTCYFT | -0.0529 log2 (difference from the parental peptide) |
| chain 1 EEDDYTAYAPDTCYFT | -7.07 log2 (difference from the parental peptide) |
| chain 1 EEDDYTAYAPMTCYFT | 2.23 log2 (difference from the parental peptide) |
| chain 1 EEDDYTAYAPCTCYFT | 0.222 log2 (difference from the parental peptide) |
| chain 1 EEDDYTAYAPRTCYFT | 1.19 log2 (difference from the parental peptide) |
| chain 1 EEDDYTAYAPLQCYFT | 1 log2 (difference from the parental peptide) |
| chain 1 EEDDYTAYAPLSCYFT | 0.347 log2 (difference from the parental peptide) |
| chain 1 EEDDYTAYAPLACYFT | 0.00832 log2 (difference from the parental peptide) |

| Variant | enrichment |
| --- | --- |
| chain 1 EEDDYTAYAPLGCYFT | -4.11 log2 (difference from the parental peptide) |
| chain 1 EEDDYTAYAPLPCYFT | 0.2 log2 (difference from the parental peptide) |
| chain 1 EEDDYTAYAPLMCYFT | 2.93 log2 (difference from the parental peptide) |
| chain 1 EEDDYTAYAPLFCYFT | 2.42 log2 (difference from the parental peptide) |
| chain 1 EEDDYTAYAPLKCYFT | -2.25 log2 (difference from the parental peptide) |
| chain 1 EEDDYTAYAPLLCYFT | 3.18 log2 (difference from the parental peptide) |
| chain 1 EEDDYTAYAPLRCYFT | -1.17 log2 (difference from the parental peptide) |
| chain 1 EEDDYTAYAPLCCYFT | -4.88 log2 (difference from the parental peptide) |
| chain 1 EEDDWTAYAPLTCYFT | 1.96 log2 (difference from the parental peptide) |
| chain 1 EEDDLTAYAPLTCYFT | -1.57 log2 (difference from the parental peptide) |
| chain 1 EEDDDTAYAPLTCYFT | -5.03 log2 (difference from the parental peptide) |
| chain 1 EEDDITAYAPLTCYFT | -5.08 log2 (difference from the parental peptide) |
| chain 1 EEDDYTAYAPLTDYFT | -8.73 log2 (difference from the parental peptide) |
| chain 1 EEDDYTAYAPLTVYFT | -2.03 log2 (difference from the parental peptide) |
| chain 1 EEDDYTAYAPLTSYFT | -4.84 log2 (difference from the parental peptide) |
| chain 1 EEDDYTAYAPLTFYFT | -8.2 log2 (difference from the parental peptide) |
| chain 1 EEDDYTAYAPLTQYFT | -7.94 log2 (difference from the parental peptide) |
| chain 1 EEDDYTAYAPLTWYFT | -6.63 log2 (difference from the parental peptide) |
| chain 1 EEDDYHAYAPLTCYFT | -0.386 log2 (difference from the parental peptide) |
| chain 1 EEDDYDAYAPLTCYFT | 3.6 log2 (difference from the parental peptide) |
| chain 1 EEDDYPAYAPLTCYFT | -5.36 log2 (difference from the parental peptide) |
| chain 1 EEDDYFAYAPLTCYFT | -4.46 log2 (difference from the parental peptide) |
| chain 1 EEDDYIAYAPLTCYFT | -5.92 log2 (difference from the parental peptide) |

| Variant | enrichment |
| --- | --- |
| chain 1 EEDDYMAYAPLTCYFT | -1.2 log2 (difference from the parental peptide) |
| chain 1 EEDDYYAYAPLTCYFT | -1.54 log2 (difference from the parental peptide) |
| chain 1 EEDDYAAYAPLTCYFT | 1.9 log2 (difference from the parental peptide) |
| chain 1 EEDDYKAYAPLTCYFT | -1.03 log2 (difference from the parental peptide) |
| chain 1 EEDDYTEYAPLTCYFT | 2.68 log2 (difference from the parental peptide) |
| chain 1 EEDDYTNYAPLTCYFT | 0.608 log2 (difference from the parental peptide) |
| chain 1 EEDDYTSYAPLTCYFT | 1.01 log2 (difference from the parental peptide) |
| chain 1 EEDDYTYYAPLTCYFT | -1.83 log2 (difference from the parental peptide) |
| chain 1 EEDDYTRYAPLTCYFT | 0.829 log2 (difference from the parental peptide) |
| chain 1 EEDDYTHYAPLTCYFT | -0.536 log2 (difference from the parental peptide) |
| chain 1 EEDDYTCYAPLTCYFT | -7.41 log2 (difference from the parental peptide) |
| chain 1 FEDDYTAYAPLTCYFT | -2.68 log2 (difference from the parental peptide) |
| chain 1 DEDDYTAYAPLTCYFT | 1.99 log2 (difference from the parental peptide) |
| chain 1 WEDDYTAYAPLTCYFT | -3.15 log2 (difference from the parental peptide) |
| chain 1 TEDDYTAYAPLTCYFT | -0.507 log2 (difference from the parental peptide) |
| chain 1 NEDDYTAYAPLTCYFT | -0.413 log2 (difference from the parental peptide) |
| chain 1 LEDDYTAYAPLTCYFT | -1.55 log2 (difference from the parental peptide) |
| chain 1 GEDDYTAYAPLTCYFT | -0.0396 log2 (difference from the parental peptide) |
| chain 1 KEDDYTAYAPLTCYFT | -2.64 log2 (difference from the parental peptide) |
| chain 1 HEDDYTAYAPLTCYFT | -1.57 log2 (difference from the parental peptide) |
| chain 1 MEDDYTAYAPLTCYFT | -0.205 log2 (difference from the parental peptide) |
| chain 1 EEDTYTAYAPLTCYFT | -4.12 log2 (difference from the parental peptide) |
| chain 1 EEDHYTAYAPLTCYFT | -5.75 log2 (difference from the parental peptide) |

| Variant | enrichment |
| --- | --- |
| chain 1 EEDQYTAYAPLTCYFT | -3.05 log2 (difference from the parental peptide) |
| chain 1 EEDMYTAYAPLTCYFT | -3.8 log2 (difference from the parental peptide) |
| chain 1 EEDRYTAYAPLTCYFT | -5.66 log2 (difference from the parental peptide) |
| chain 1 EEDEYTAYAPLTCYFT | 0.269 log2 (difference from the parental peptide) |
| chain 1 EEDIYTAYAPLTCYFT | -3.77 log2 (difference from the parental peptide) |
| chain 1 EEDWYTAYAPLTCYFT | -2.51 log2 (difference from the parental peptide) |
| chain 1 EEDFYTAYAPLTCYFT | -3.98 log2 (difference from the parental peptide) |
| chain 1 EEDDYTAYAPLTCIFT | -1.56 log2 (difference from the parental peptide) |
| chain 1 EEDDYTAYAPLTCVFT | -1.84 log2 (difference from the parental peptide) |
| chain 1 EEDDYTAYAPLTCTFT | -1.65 log2 (difference from the parental peptide) |
| chain 1 EEDDYTAYAPLTCCFT | -4.56 log2 (difference from the parental peptide) |
| chain 1 EEDDYTAYAPLTCYGT | -2.79 log2 (difference from the parental peptide) |
| chain 1 EEDDYTAYAPLTCYKT | 0.923 log2 (difference from the parental peptide) |
| chain 1 EEDDYTAYAPLTCYDT | -2.26 log2 (difference from the parental peptide) |
| chain 1 EEDDYTAYAPLTCYAT | 1.49 log2 (difference from the parental peptide) |
| chain 1 EEDDYTAYAPLTCYVT | 1.4 log2 (difference from the parental peptide) |
| chain 1 EEDDYTAYAPLTCYCT | -4.83 log2 (difference from the parental peptide) |
| chain 1 EEDDYTAYAPLTCYWT | -1.58 log2 (difference from the parental peptide) |
| chain 1 EEDDYTAYAPLTCYMT | 1.08 log2 (difference from the parental peptide) |
| chain 1 EEDDYTAYAPLTCYPT | 1.32 log2 (difference from the parental peptide) |
